Publication PMC3901395, “Multivalent interactions of the SUMO-interaction motifs in RING finger protein 4 determine the specificity for chains of the SUMO” (Biochemical Journal, 2013)

What was measured:
[1] = tested on: (SUMO2)4–GFP–HA2; test: Pulse–chase analysis of (SUMO2)4–GFP–HA2 turnover in yeast; format: cell-based, S. cerevisiae; conditions: 2 min pulse labelling with [35S]methionine, anti-HA immunoprecipitation, phosphorimaging
Description: To correlate the strength of the interaction of RNF4 and its SIM mutants with poly-SUMOs to the activity of RNF4 in living cells, we made use of our previous findings that RNF4 is functional in yeast and disrupts PML-NBs in mammalian cells. We therefore co-expressed combinations of full-length wt RNF4 or its SIM mutants with poly-SUMO chains that retained the native N-terminus on the first SUMO moiety and were C-terminally tagged with GFP–HA in S. cerevisiae. As shown in Figures 3(A)–3(C), the poly-SUMO–GFP–HA reporter constructs were efficiently targeted for degradation. Compared with the control transformants not expressing RNF4, the levels of di-SUMO2 were reduced to approximately 55%, and this effect was enhanced if the chain was composed of three or four SUMOs (45% and 43% of control levels respectively). […]
Concentrated di-SUMO2-/Delta1N11 (10 mg/ml) in crystallization […] buffer was used for crystallization experiments by hanging-drop […] vapour diffusion. Crystals grew in a solution of 0.1 M Tris/HCl, […] pH 8.0, 28 % PEG 350 MME (Qiagen) and 0.05 % dioxane within […] 2–4 days at room temperature (21 ◦ C). […]

[2] = tested on: PML-NBs in HeLa cells; test: Disruption of PML-NBs by overexpression of RNF4 in HeLa cells; format: cell-based; conditions: HeLa cells transfected with HA-tagged full-length RNF4; automatic image analysis, 30 to 60 cells per condition; GFP control plasmid 12 PML-NBs, untreated average 15
Procedure: HeLa B-cells were grown on coverslips and fixed in PBS with 3% paraformaldehyde. After permeabilization in PBS with 0.2% saponin (Sigma–Aldrich), cells were blocked in PBS, 3% BSA and 0.2% saponin. Primary and Alexa Fluor®-labelled secondary antibodies (Invitrogen) were applied in blocking buffer. Coverslips were embedded in ProLong® Gold Antifade (Invitrogen) and examined using a Zeiss Axioplan2 fluorescence microscope. Proteins and epitope tags were detected with the following antibodies against PML (A167 and A168; Bethyl), HA (haemagglutinin) (3F10; Roche, 16B12; Covance) and CDC11 (SC-7170; Santa Cruz Biotechnology). The secondary antibodies were labelled with Alexa Fluor® 546, Alexa Fluor® 647 or Alexa Fluor® 670 (Invitrogen), or IRDye800 (Rockland). For quantification of PML-NBs, cells were acquired using a Zeiss Meta 510 Confocal microscope, 63× objective NA (numerical aperture) 1.4 and appropriate laser and filter settings. Z-stacks were taken according to Nyquist criteria. Microscopic pictures were analysed with Volocity 6.2 Cellular Imaging & Analysis Software (PerkinElmer). Transfected cells were automatically identified within the 546 nm channel and the amount of PML-NBs (647 nm channel) that were localized within the nuclei of transfected cells were automatically counted.

B1: RNF4 FL: full-length human RNF4 (RING finger protein 4); FLAG-tagged in yeast, HA-tagged in HeLa cells (protein)
chain: MSTRKRRGGAINSRQAQKRTREATSTPEISLEAEPIELVETAGDEIVDLTCESLEPVVVDLTHNDSVVIVDERRRPRRNARRLPQDHADSCVVSSDDEELSRDRDVYVTTHTPRNARDEGATGLRPSGTVSCPICMDGYSEIVQNGRLIVSTECGHVFCSQCLRDSLKNANTCPTCRKKINHKRYHPIYI
modifications: left off: GST, end not stated, cleaved
notes: full-length human RNF4 (RING finger protein 4); FLAG-tagged in yeast, HA-tagged in HeLa cells
turnover of linear tetra-SUMO2 reporter, pulse–chase [1]: degraded upon coexpression of RNF4
number of PML-NBs after transfection [2]: approximately five
